Test in all cases: enzyme inhibition assay (fluorogenic substrate), Ki by Morrison's equation; fetuin-B variant titrated against enzyme; 37°C, 150 mM sodium chloride, 50 mM Tris-HCl pH 7.4, 0.01% Brij 35, triplicate; enzyme and substrate 1.0 nM and 195 µM for astacin, 0.5 nM and 26 µM for meprin β, 0.7 nM and 26 µM for ovastacin
What all share (details): both partners purified

The target in one test is T1, crayfish astacin (European freshwater crayfish Astacus …, UniProt P07584 50-251).
T1 construct: astacin, Astacus astacus, UniProt P07584; Carries a catalytic zinc ion; also called archetypal astacin; source: purified from the digestive fluid of the European freshwater crayfish Astacus astacus L

The next test deals with T2, mouse ovastacin (mouse, UniProt Q6HA09 85-435).
T2 sequence (looked up): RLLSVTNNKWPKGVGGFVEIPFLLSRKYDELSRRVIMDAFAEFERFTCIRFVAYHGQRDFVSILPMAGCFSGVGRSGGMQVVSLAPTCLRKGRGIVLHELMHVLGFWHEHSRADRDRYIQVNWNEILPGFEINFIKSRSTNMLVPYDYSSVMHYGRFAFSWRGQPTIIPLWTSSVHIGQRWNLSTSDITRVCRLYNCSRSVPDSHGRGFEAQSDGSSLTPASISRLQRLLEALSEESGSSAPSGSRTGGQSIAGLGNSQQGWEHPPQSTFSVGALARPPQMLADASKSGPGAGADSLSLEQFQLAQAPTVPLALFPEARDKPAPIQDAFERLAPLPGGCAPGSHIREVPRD

For the next test, the target named is T3, human meprin β (human, UniProt Q16820 62-652).
T3 sequence (looked up): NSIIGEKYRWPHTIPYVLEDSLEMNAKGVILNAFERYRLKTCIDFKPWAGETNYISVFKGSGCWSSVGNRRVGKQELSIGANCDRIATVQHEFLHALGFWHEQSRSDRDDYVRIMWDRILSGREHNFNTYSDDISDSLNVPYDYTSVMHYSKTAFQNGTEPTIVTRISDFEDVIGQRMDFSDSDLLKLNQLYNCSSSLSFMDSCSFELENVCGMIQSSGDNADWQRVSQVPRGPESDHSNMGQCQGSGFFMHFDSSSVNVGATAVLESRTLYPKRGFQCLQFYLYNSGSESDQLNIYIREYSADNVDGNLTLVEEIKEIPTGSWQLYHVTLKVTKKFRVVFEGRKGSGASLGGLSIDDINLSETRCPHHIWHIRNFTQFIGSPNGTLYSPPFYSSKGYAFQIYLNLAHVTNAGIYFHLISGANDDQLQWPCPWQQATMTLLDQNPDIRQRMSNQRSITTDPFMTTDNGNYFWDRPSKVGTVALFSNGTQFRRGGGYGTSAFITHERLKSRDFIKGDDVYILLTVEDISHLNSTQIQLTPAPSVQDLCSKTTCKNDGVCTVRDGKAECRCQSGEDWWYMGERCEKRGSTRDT

The term Ki denotes a dissociation constant, usually derived from enzyme kinetics or from competition with a known ligand.

T1 sequence (P07584 50-251): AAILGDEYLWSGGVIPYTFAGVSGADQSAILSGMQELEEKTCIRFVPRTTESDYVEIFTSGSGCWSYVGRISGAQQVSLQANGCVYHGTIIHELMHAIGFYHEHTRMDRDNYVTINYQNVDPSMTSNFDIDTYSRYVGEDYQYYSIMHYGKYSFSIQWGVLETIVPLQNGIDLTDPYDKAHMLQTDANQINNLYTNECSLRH

B1: chimeric mutant mFBABA (other, mouse, UniProt P29699 19-136, looked up)
chain: APQGTGLGFRELACDDPEAEQVALLAVDYLNNHLLQGFKQVLNQIDKVKVWSRRPFGVVYEMEVDTLETTCHALDPTPLANCSVRQLTEHAVEGDCDFHILKQDGQFRVMHTQCHSTPVSKRKTHTTCPDCPSPIDLSNPSALEAATESLAKFNSKSPSKKYELVKVTKAMNQWVSGPAYYVEYLIKEAPCTKSQASCSLQHSDSEPVGICQGSTVQSSLRHVPLIQPVEKSVTVTCEFFESQPQPANANAVGPVPTANAALPADPPASVVVGPVVVPRGLSDHRTYHDLRHAFSPVASVESASGETLHSPKVGQPGAAGPVSPMCPGRIRHFKI
notes: mouse fetuin-A CY1 domain, UniProt P29699, residues A19-P136; mouse fetuin-B CY2 domain with linker, UniProt Q9QXC1, residues V145-Q269; mouse fetuin-A CTR domain, UniProt P29699, residues P254-I345; also called chimera of mouse fetuin-B with CY1 and CTR from mouse fetuin-A; source: adenovirus-infected COS-7 cells, purified (Ni-NTA)
As for B1, the “loss of inhibitory potency (change of Ki) against wild-type mouse fetuin-B” value was > 3 orders of magnitude with crayfish astacin, > 4 orders of magnitude with mouse ovastacin and > 4 orders of magnitude with human meprin β.

B2: mouse fetuin-B (natural protein, UniProt Q9QXC1 19-388, looked up)
chain: RSPPAPPLPQRPLSPLHPLGCNDSEVLAVAGFALQNINRDQKDGYMLSLNRVHDVREHYQEDMGSLFYLTLDVLETDCHVLSRKAQKDCKPRMFYESVYGQCKAMFHINKPRRVLYLPAYNCTLRPVSKRKTHTTCPDCPSPIDLSNPSALEAATESLAKFNSKSPSKKYELVKVTKAMNQWVSGPAYYVEYLIKEAPCTKSQASCSLQHSDSEPVGICQGSTVQSSLRHVPLIQPVEKSVTVTCEFFESQAQVPGDENPAVTQGPQKLPQKNTAPTSSPSVTAPRGSIQHLPELDDEKPEESKGGSPEEAFPVQLDLTTNPQGDTLDVSFLYLEPGDKKLVVLPFPGKEQRSAECPGPEKENNPLVLPP
modifications: N-glycans at N40 and N139
notes: mouse fetuin-B, UniProt Q9QXC1; residues R29-P388 (molecule B) and Q28-P388 (molecule D) are modelled in the complex; also called mFB; murine fetuin-B; source: baculovirus-transduced High Five cells, purified (Ni-NTA); not shown: His6, C-terminal, kept
As for B2, the Ki stood at 0.1 nM in the test with crayfish astacin, 0.046 nM in the test with mouse ovastacin and 0.081 nM in the test with human meprin β.

B3: mouse fetuin-B P155A+D156A (natural protein, UniProt Q9QXC1 19-388, looked up)
chain: RSPPAPPLPQRPLSPLHPLGCNDSEVLAVAGFALQNINRDQKDGYMLSLNRVHDVREHYQEDMGSLFYLTLDVLETDCHVLSRKAQKDCKPRMFYESVYGQCKAMFHINKPRRVLYLPAYNCTLRPVSKRKTHTTCAACPSPIDLSNPSALEAATESLAKFNSKSPSKKYELVKVTKAMNQWVSGPAYYVEYLIKEAPCTKSQASCSLQHSDSEPVGICQGSTVQSSLRHVPLIQPVEKSVTVTCEFFESQAQVPGDENPAVTQGPQKLPQKNTAPTSSPSVTAPRGSIQHLPELDDEKPEESKGGSPEEAFPVQLDLTTNPQGDTLDVSFLYLEPGDKKLVVLPFPGKEQRSAECPGPEKENNPLVLPP
notes: also called mFB_(P155A,D156A); double mutant; source: ExpiCHO-S cells, purified (Ni-NTA)
Turning to B3, the “loss of inhibitory potency (change of Ki) against wild-type mouse fetuin-B” value with crayfish astacin is 2 orders of magnitude; with mouse ovastacin it was 4 orders of magnitude; with human meprin β it was 4 orders of magnitude.

B4: mouse fetuin-B P155A (natural protein, UniProt Q9QXC1 19-388, looked up)
chain: RSPPAPPLPQRPLSPLHPLGCNDSEVLAVAGFALQNINRDQKDGYMLSLNRVHDVREHYQEDMGSLFYLTLDVLETDCHVLSRKAQKDCKPRMFYESVYGQCKAMFHINKPRRVLYLPAYNCTLRPVSKRKTHTTCADCPSPIDLSNPSALEAATESLAKFNSKSPSKKYELVKVTKAMNQWVSGPAYYVEYLIKEAPCTKSQASCSLQHSDSEPVGICQGSTVQSSLRHVPLIQPVEKSVTVTCEFFESQAQVPGDENPAVTQGPQKLPQKNTAPTSSPSVTAPRGSIQHLPELDDEKPEESKGGSPEEAFPVQLDLTTNPQGDTLDVSFLYLEPGDKKLVVLPFPGKEQRSAECPGPEKENNPLVLPP
notes: also called mFB_(P155A); source: ExpiCHO-S cells, purified (Ni-NTA)
For the molecule B4, the “loss of inhibitory potency (change of Ki) against wild-type mouse fetuin-B” value in the test with crayfish astacin is ~1 orders of magnitude; with mouse ovastacin, ~2 orders of magnitude; in the test with human meprin β, ~1 orders of magnitude.

B5: mouse fetuin-B D156A (natural protein, UniProt Q9QXC1 19-388, looked up)
chain: RSPPAPPLPQRPLSPLHPLGCNDSEVLAVAGFALQNINRDQKDGYMLSLNRVHDVREHYQEDMGSLFYLTLDVLETDCHVLSRKAQKDCKPRMFYESVYGQCKAMFHINKPRRVLYLPAYNCTLRPVSKRKTHTTCPACPSPIDLSNPSALEAATESLAKFNSKSPSKKYELVKVTKAMNQWVSGPAYYVEYLIKEAPCTKSQASCSLQHSDSEPVGICQGSTVQSSLRHVPLIQPVEKSVTVTCEFFESQAQVPGDENPAVTQGPQKLPQKNTAPTSSPSVTAPRGSIQHLPELDDEKPEESKGGSPEEAFPVQLDLTTNPQGDTLDVSFLYLEPGDKKLVVLPFPGKEQRSAECPGPEKENNPLVLPP
notes: also called mFB_(D156A); source: ExpiCHO-S cells, purified (Ni-NTA)
In the case of B5, the entries for the “loss of inhibitory potency (change of Ki) against wild-type mouse fetuin-B” value in the test with crayfish astacin, with mouse ovastacin and with human meprin β were ~2 orders of magnitude, ~4 orders of magnitude and ~2 orders of magnitude, respectively.

The record behind these values is paper PMC6400186, “Structure of mammalian plasma fetuin-B and its mechanism of selective metallopeptidase inhibition” (IUCrJ, 2019).
